Reference: publication PMC5226589

Assays:
[1] = target: telomere target construct (TCON): HALO-tagged fusion of EGFP, CIB1 and TRF1 (UniProt Q8GY61); assay: FRET or BRET; FLIM-FRET in live HeLa cells co-transfected with TCON and ECON; lifetime of EGFP (donor) with mCherry (acceptor); blue light 8 mW/cm^2 for 5 min (a similar response after 8 min at 1 mW/cm^2)
[2] = target: telomere target construct (TCON): HALO-tagged fusion of EGFP, CIB1 and TRF1 (UniProt Q8GY61)

For “epigenetic effector construct (ECON): HALO-tagged fusion of DNMT3A, CRY2PHR and mCherry (from UniProt Q9Y6K1 1-912)”, the average fluorescence lifetime of EGFP (FRET donor on TCON) after 5 min of blue light [1] was 2.06 ns and the mean telomere length (TRF, Southern blot) of co-transfected HeLa cells exposed to blue light over three generations (5.3 Kb Gen-1 to 6.03 Kb Gen-3; without light 5.01 Kb to 4.6 Kb) [2] was 6.03 Kb.
